The target in this test is human IGF1R ectodomain (Δβ mutant) (human) (UniProt P08069). Kind of test: radioligand binding.

pIC50: −log10 of the molar value.

Broadly, the pIC50 is −log10 of the IC50, conventionally taken in molar units. Lower therefore signals a large IC50. The substance “human IGF-1 (unlabeled) (from UniProt P05019 49-118) (ligand)” had a pIC50 of 9.40.

Values taken from PMC9637144.
